The record followed here is patent publication US20250026823A1 (MERUS N V, published 2025).

The target in assay [1] is T1, CLEC12A expressed on cells (CLEC12A-transfected CHO cells; HL60 cells) (UniProt Q5QGZ9 1-265, limits assumed).
T1 sequence (looked up): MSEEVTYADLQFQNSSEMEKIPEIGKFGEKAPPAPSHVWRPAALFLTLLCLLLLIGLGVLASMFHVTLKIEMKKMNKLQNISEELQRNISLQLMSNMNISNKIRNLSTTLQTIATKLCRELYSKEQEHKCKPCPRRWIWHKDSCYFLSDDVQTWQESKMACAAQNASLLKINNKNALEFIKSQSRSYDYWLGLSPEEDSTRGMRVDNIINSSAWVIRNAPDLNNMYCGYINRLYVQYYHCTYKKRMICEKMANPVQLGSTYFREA
Description: cell-based or functional assay.

Assay [2] addresses T1, CLEC12A expressed on cells …. Description: flow cytometry on CLEC12A-transfected CHO cells.
The target of assay [3] is T2, extracellular domain of CLEC12A (amino acids 75 to 275) coupled to a His-tag (Sino Biological, cat.no. … (UniProt Q5QGZ9-1 75-275)).
T2 construct: range 75-275; Bought protein; also called coated CLEC12A; isolated extracellular domain of CLEC12A; not shown: His-tag
T2 sequence (looked up): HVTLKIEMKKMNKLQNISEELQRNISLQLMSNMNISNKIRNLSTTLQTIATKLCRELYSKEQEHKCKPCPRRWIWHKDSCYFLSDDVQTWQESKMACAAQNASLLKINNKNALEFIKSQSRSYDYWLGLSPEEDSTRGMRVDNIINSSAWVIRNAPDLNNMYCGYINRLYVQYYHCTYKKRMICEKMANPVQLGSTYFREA
Put plainly: ELISA, extracellular domain of CLEC12A coated at 2 µg/ml.

In assay [4] the target is T1, CLEC12A expressed on cells …. Description: flow cytometry on HL60 cells, optimized IgG concentration.

B1: CD3XCLEC12A bsAb (3056x3116) with DM-Fc (bispecific antibody, V domains shown)
VH 1: QVQLVQSGGGVVQPGRSLRLSCVASGFTFSSYGMHWVRQAPGKGLEWVAAIWYNGRKQDYADSVKGRFTISRDNSKNTLYLQMNSLRAEDTAVYYCTRGTGYNWFDPWGQGTLVTVSS
VH 2: QVQLQESGPGLVKPSETLSLTCVVSGGSISSSNWWSWVRQPPGKGLEWIGEIYHSGSPDYNPSLKSRVTISVDKSRNQFSLKLSSVTAADTAVYYCAKVSTGGFFDYWGQGTLVTVSS
VL: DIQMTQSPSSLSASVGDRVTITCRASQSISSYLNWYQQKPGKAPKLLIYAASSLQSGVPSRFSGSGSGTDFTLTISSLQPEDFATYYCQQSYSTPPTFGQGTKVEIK
Regarding B1, in assay [1], the “lysis of HL60 cells by AML patient derived T-cells (percentage of specific lysis relative to IgG)” value amounted to 68% and the “lysis of HL60 cells by healthy donor T cells (percentage of specific lysis relative to IgG)” value is 69%.

B2: CD3 monospecific antibody (3056x3056) (antibody, V domains shown)
VH: QVQLVQSGGGVVQPGRSLRLSCVASGFTFSSYGMHWVRQAPGKGLEWVAAIWYNGRKQDYADSVKGRFTISRDNSKNTLYLQMNSLRAEDTAVYYCTRGTGYNWFDPWGQGTLVTVSS
VL: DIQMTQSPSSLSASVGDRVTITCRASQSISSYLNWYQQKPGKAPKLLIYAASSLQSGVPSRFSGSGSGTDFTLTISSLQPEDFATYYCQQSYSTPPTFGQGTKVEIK
notes: Full length bivalent monoclonal IgG; also called CD3 IgG
In assay [2], B2 showed a mean fluorescent intensity of 282.

B3: CLEC12A monospecific antibody (3116x3116) (antibody, V domains shown)
VH: QVQLQESGPGLVKPSETLSLTCVVSGGSISSSNWWSWVRQPPGKGLEWIGEIYHSGSPDYNPSLKSRVTISVDKSRNQFSLKLSSVTAADTAVYYCAKVSTGGFFDYWGQGTLVTVSS
VL: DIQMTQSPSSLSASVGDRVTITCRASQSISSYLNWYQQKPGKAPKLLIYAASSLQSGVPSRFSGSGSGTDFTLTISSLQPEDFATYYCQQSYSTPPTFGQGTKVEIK
notes: Bivalent IgG; also called CLEC12A benchmark antibody; CLEC12A benchmark IgG
For the molecule B3, the mean fluorescent intensity in assay [2] was found to be 4150; in assay [4] it was 1470. Moreover, in assay [3], the optical density came out at 1.42.

B4: candidate 3056x3116 CD3xCLEC12A bispecific IgG1 (bispecific antibody, V domains shown)
VH 1: QVQLVQSGGGVVQPGRSLRLSCVASGFTFSSYGMHWVRQAPGKGLEWVAAIWYNGRKQDYADSVKGRFTISRDNSKNTLYLQMNSLRAEDTAVYYCTRGTGYNWFDPWGQGTLVTVSS
VH 2: QVQLQESGPGLVKPSETLSLTCVVSGGSISSSNWWSWVRQPPGKGLEWIGEIYHSGSPDYNPSLKSRVTISVDKSRNQFSLKLSSVTAADTAVYYCAKVSTGGFFDYWGQGTLVTVSS
VL: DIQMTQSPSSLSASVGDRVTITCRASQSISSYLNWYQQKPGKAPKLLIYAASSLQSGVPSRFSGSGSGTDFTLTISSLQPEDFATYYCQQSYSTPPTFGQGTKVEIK
notes: Full length human IgG1 with wild type Fc and a common huVk1-39 light chain; The heavy chains were heterodimerised by known methods (Gunasekaran et al; WO2009/089004); also called CD3XCLEC12A WT Fc IgG1
The molecule B4 returned a mean fluorescent intensity in assay [2] of 5300.

B5: 4327 CLEC12A IgG (antibody, V domains shown)
VH: QVQLVQSGAEVKKPGASVKVSCKASGYTFTSYYMHWVRQAPGQGLEWMGIINPSGGSTSYAQKFQGRVTMTRDTSTSTVYMELSSLRSEDTAVYYCAKGTTGDWFDYWGQGTLVTVSS
VL: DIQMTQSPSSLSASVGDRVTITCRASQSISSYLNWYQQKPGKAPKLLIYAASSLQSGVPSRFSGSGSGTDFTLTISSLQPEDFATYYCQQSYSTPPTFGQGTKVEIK
notes: Full length human IgG1
As to B5, the optical density in assay [3] worked out at 1.31. In assay [4], the mean fluorescent intensity was 1560.

B6: 4331 CLEC12A IgG (antibody, V domains shown)
VH: EVQLVQSGAEVKKPGASVKVSCKASGYTFTSYYMHWVRQAPGQGLEWMGIINPSGGSTSYAQKFQGRVTMTRDTSTSTVYMELSSLRSEDTAVYYCARGNYGDEFDYWGQGTLVTVSS
VL: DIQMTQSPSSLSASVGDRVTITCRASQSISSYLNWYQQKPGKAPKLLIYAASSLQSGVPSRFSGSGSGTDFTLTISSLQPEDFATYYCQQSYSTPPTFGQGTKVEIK
notes: Full length human IgG1
Molecule B6 displayed an optical density in assay [3] of 1.33. Also, in assay [4], the mean fluorescent intensity amounted to 1110.
